Source: the supplement of paper PMC10567573

B1: LOXL2 (parent)
chain: FSPDGPSRFRKAYKPEQPLVRLRG
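Further: lentivirally expressed fusions sorted by FACS into six bins by GFP to DsRed ratio, PSI derived from sequencing read proportions per bin multiplied by bin number.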

Variants of: B1
Test: protein stability index of a GFP-peptide fusion (GPS, HEK-293T) (PSI 1-6); higher = more stable
Settings: c terminus: a fixed tail appended
In the case of L19N, the protein stability index is reported as 1.22.
L19M gave a protein stability index of 1.82.
Variant L19S has a protein stability index of 2.29.
Work on L19V yielded a protein stability index of 1.41.
With L19K the protein stability index was 1.65.
Variant L19H has a protein stability index of 1.45.
In the case of L19Q, the protein stability index is reported as 2.56.
L19T gave a protein stability index of 1.89.
Variant L19I has a protein stability index of 2.36.
In the case of L19Y, the protein stability index is reported as 2.69.
Work on L19A yielded a protein stability index of 2.01.
L19D showed a protein stability index of 2.46.
For L19P, the protein stability index was 1.23.
In the case of L19W, the protein stability index is reported as 2.04.
Work on L19G yielded a protein stability index of 2.08.
For L19E, the protein stability index was 2.34.
R21S showed a protein stability index of 1.73.
R21G showed a protein stability index of 1.67.
Variant R21C has a protein stability index of 2.37.
R21Q showed a protein stability index of 1.8.
With R21I the protein stability index was 2.57.
In the case of R21K, the protein stability index is reported as 1.25.
R21P gave a protein stability index of 1.77.
In the case of R21M, the protein stability index is reported as 1.59.
In the case of R21Y, the protein stability index is reported as 1.86.
With R21W the protein stability index was 1.92.
For R21F, the protein stability index was 2.12.
R21N gave a protein stability index of 1.61.
Work on R21L yielded a protein stability index of 1.26.
For R21H, the protein stability index was 2.25.
R21V gave a protein stability index of 1.65.
In the case of R21T, the protein stability index is reported as 1.53.
R21A showed a protein stability index of 1.65.
With R21E the protein stability index was 1.99.
Variant R21D has a protein stability index of 2.
In the case of V20A, the protein stability index is reported as 2.26.
With V20W the protein stability index was 3.13.
Work on V20D yielded a protein stability index of 2.34.
Variant V20K has a protein stability index of 1.37.
V20H showed a protein stability index of 1.63.
For V20M, the protein stability index was 2.05.
Variant V20R has a protein stability index of 2.51.
Variant V20T has a protein stability index of 1.92.
V20S showed a protein stability index of 1.34.
Variant V20P has a protein stability index of 1.92.
Work on V20F yielded a protein stability index of 2.99.
In the case of V20I, the protein stability index is reported as 2.62.
For V20E, the protein stability index was 1.74.
V20Q gave a protein stability index of 1.4.
With V20Y the protein stability index was 2.17.
Work on V20G yielded a protein stability index of 1.41.
V20C showed a protein stability index of 1.85.
For V20L, the protein stability index was 2.
Work on V20N yielded a protein stability index of 2.42.
With R23F the protein stability index was 1.97.
In the case of R23C, the protein stability index is reported as 2.39.
For R23V, the protein stability index was 1.98.
Work on R23W yielded a protein stability index of 2.25.
R23S showed a protein stability index of 1.82.
R23H gave a protein stability index of 1.85.
Variant R23T has a protein stability index of 1.33.
Work on R23Y yielded a protein stability index of 1.2.
R23M showed a protein stability index of 2.33.
With R23G the protein stability index was 1.96.
R23L gave a protein stability index of 1.37.
Work on R23E yielded a protein stability index of 2.46.
R23I gave a protein stability index of 2.31.
Work on R23D yielded a protein stability index of 2.78.
R23Q showed a protein stability index of 2.13.
R23K gave a protein stability index of 1.53.
R23N showed a protein stability index of 1.29.
R23A showed a protein stability index of 1.89.
R23P gave a protein stability index of 1.85.
For L22M, the protein stability index was 2.04.
With L22P the protein stability index was 2.05.
For L22D, the protein stability index was 1.93.
L22V gave a protein stability index of 1.54.
L22H gave a protein stability index of 1.52.
In the case of L22Y, the protein stability index is reported as 1.75.
For L22E, the protein stability index was 1.68.
Variant L22C has a protein stability index of 1.95.
L22R gave a protein stability index of 2.35.
Work on L22N yielded a protein stability index of 2.36.
L22F gave a protein stability index of 1.21.
L22I gave a protein stability index of 2.42.
L22Q showed a protein stability index of 1.99.
In the case of L22T, the protein stability index is reported as 2.26.
L22S gave a protein stability index of 1.74.
L22W gave a protein stability index of 1.47.
Work on L22A yielded a protein stability index of 2.32.
L22G gave a protein stability index of 1.9.
L22K showed a protein stability index of 1.58.
With P18A the protein stability index was 2.07.
Work on P18H yielded a protein stability index of 2.03.
With P18L the protein stability index was 1.89.
Variant P18C has a protein stability index of 1.52.
P18E gave a protein stability index of 1.82.
In the case of P18I, the protein stability index is reported as 1.95.
Variant P18Y has a protein stability index of 1.65.
P18S gave a protein stability index of 1.8.
With P18G the protein stability index was 1.66.
Variant P18W has a protein stability index of 2.44.
P18D gave a protein stability index of 2.04.
P18R gave a protein stability index of 1.86.
Variant P18K has a protein stability index of 2.38.
In the case of P18T, the protein stability index is reported as 1.42.
Work on P18N yielded a protein stability index of 2.75.
Work on P18Q yielded a protein stability index of 2.17.
Variant P18V has a protein stability index of 2.06.
With P18F the protein stability index was 1.11.
With P18M the protein stability index was 2.
G24C gave a protein stability index of 2.27.
G24P gave a protein stability index of 1.82.
For G24R, the protein stability index was 2.79.
G24W gave a protein stability index of 2.07.
Variant G24T has a protein stability index of 1.38.
Variant G24D has a protein stability index of 1.8.
G24S gave a protein stability index of 1.41.
For G24L, the protein stability index was 3.27.
In the case of G24I, the protein stability index is reported as 1.44.
Variant G24M has a protein stability index of 2.72.
Variant G24E has a protein stability index of 1.91.
Work on G24V yielded a protein stability index of 2.73.
G24K showed a protein stability index of 1.69.
G24H showed a protein stability index of 1.52.
In the case of G24Q, the protein stability index is reported as 2.72.
G24F gave a protein stability index of 1.73.
G24A showed a protein stability index of 2.71.
Variant G24N has a protein stability index of 1.91.
With G24Y the protein stability index was 1.85.
Q17P showed a protein stability index of 2.81.
With Q17V the protein stability index was 2.21.
Work on Q17S yielded a protein stability index of 2.25.
For Q17W, the protein stability index was 1.28.
Work on Q17R yielded a protein stability index of 1.57.
Q17T showed a protein stability index of 1.5.
